Measured values reported in patent US20250297005A1 (FORTVITA BIOLOGICS SINGAPORE PTE, published 2025).

T1: human CLDN18.2 on cells (HEK293-hCLDN18.2, DAN-G-hCLDN18.2, NUGC-4) (human, UniProt P56856-2 1-261)
T1 sequence (looked up): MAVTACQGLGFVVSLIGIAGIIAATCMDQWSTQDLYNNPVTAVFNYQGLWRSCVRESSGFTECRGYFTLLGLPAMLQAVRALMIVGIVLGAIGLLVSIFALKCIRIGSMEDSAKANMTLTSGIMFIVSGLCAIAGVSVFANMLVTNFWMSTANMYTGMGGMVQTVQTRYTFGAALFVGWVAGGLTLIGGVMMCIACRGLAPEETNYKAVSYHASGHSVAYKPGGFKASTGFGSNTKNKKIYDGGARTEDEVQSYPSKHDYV


Tests used:
[1] = biological target: T1, human CLDN18.2 on cells …; assay: cell-based or functional assay
[2] = biological target: T1, human CLDN18.2 on cells …; assay: flow cytometry of hybridoma supernatant on HEK293-hCLDN18.2 cells
Description: In the present invention, H2L2 fully human antibody transgenic mice (purchased from Harbour BioMed) were immunized with the cells obtained in Example 1 (CHO-hCLDN18.2) by using the hybridoma technology. Spleen cells from the mice were then harvested and electrofused with myeloma cells. […] The test cells (HEK293-hCLDN18.2) obtained in Example 1 were counted, diluted to 1×10⁶ cells/mL, and then added to a U-bottom 96-well plate at 100 µL/well. The cells were centrifuged at 500 g for 5 min, and the cell medium was removed. The hybridoma culture supernatant in a 96-well plate was added to the U-bottom plate at 100 μL/well, the cells were resuspended, and the suspension was left to stand on ice for 30 min. The suspension was centrifuged at 500 g for 5 min, the supernatant was removed, and the cells were washed once with PBS. 100 μL of FITC-labeled anti-mouse Fab secondary antibody (1:500 dilution in PBS) was added to each well, and 100 μL of FITC-labeled anti-human Fab secondary antibody was added to the positive control antibody. The resulting mixture was incubated on ice in the dark for 30 min. The mixture was centrifuged at 500 g for 5 min, the supernatant was removed, and the cells were washed once with PBS. The cells were resuspended in 50 μL of 1×PBS, and the suspension was loaded for FACS assay. […]

binding result [2]	Binder	EC50 of in vitro T cell (PBMC) killing of gastric cancer cells NUGC-4 [1]	EC50 of in vitro T cell (PBMC) killing of pancreatic cancer cells DAN-G-hCLDN18.2 [1]
	bispecific antibody 030 (anti-CLDN18.2 moiety HB37A6 x anti-CD3 moiety HzSP34.24) (bispecific antibody, human IgG1, kappa, lambda, L234A L235A) heavy 1: not shown light 1: not shown heavy 2: not shown light 2: QAVVTQEPSLTVSPGGTVTLTCRSSTGAVTTSNYANWVQQKPGQAPRGLIGGTNKRAPGVPARFSGSLLGDKAALTLLGAQPEDEAEYYCALWYSNLWVFGQGTKLTVLGQPKAAPSVTLFPPSSEELQANKATLVCLISDFYPGAVTVAWKADSSPVKAGVETTTPSKQSNNKYAASSYLSLTPEQWKSHRSYSCQVTHEGSTVEKTVAPTECS	< 1 pM	< 0.1 pM
	bispecific antibody 032 (anti-CLDN18.2 moiety HB37A6 x anti-CD3 moiety HzSP34.87) (bispecific antibody, human IgG1, kappa, lambda, L234A L235A) heavy 1: not shown light 1: not shown heavy 2: not shown light 2: QAVVTQEPSLTVSPGGTVTLTCRSSTGAVTTSNYANWVQQKPGQAPRGLIGGTNKRAPGVPARFSGSLLGDKAALTLLGAQPEDEAEYYCALWYSNLWVFGQGTKLTVLGQPKAAPSVTLFPPSSEELQANKATLVCLISDFYPGAVTVAWKADSSPVKAGVETTTPSKQSNNKYAASSYLSLTPEQWKSHRSYSCQVTHEGSTVEKTVAPTECS	< 1 pM	< 0.1 pM
binds	fully human antibody clone HB37A6 (hybridoma culture supernatant) (antibody, V domains shown, Tested as hybridoma supernatant from H2L2 transgenic mice; also called anti-CLDN18.2 antibody) VH: EVQLLDSGGGLVQPGGSLRLSCAASGFTFSSYVMSWVRQAPGKGLNWVSTISHSGGSTYYADSVKGRFTISRDNSKNTLYLQMNSLRAEDTAVYYCAIDAPYYDILTGYRYWGQGTLVTVSS VL: not shown		
